Publication PMC10808743, “Generation of human TMEM16F-specific affibodies using purified TMEM16F” (Frontiers in Molecular Biosciences, 2023)

Target: the molecule itself
Assay: SEC; 40 μg TMEM16F (0.4 mg/mL) incubated with 40 μg #50 affibody (0.5 mg/mL) for 2 h at 4°C, separated on Superose 6 FPLC; fractions around 14.8 mL analysed by SDS-PAGE and Western blot

B1: human TMEM16F (hTMEM16F) variant 1, SBP-tagged, purified (natural protein, UniProt Q4KMQ2-1 1-910, looked up)
chain: MKKMSRNVLLQMEEEEDDDDGDIVLENLGQTIVPDLGSLESQHDFRTPEFEEFNGKPDSLFFNDGQRRIDFVLVYEDESRKETNKKGTNEKQRRKRQAYESNLICHGLQLEATRSVLDDKLVFVKVHAPWEVLCTYAEIMHIKLPLKPNDLKNRSSAFGTLNWFTKVLSVDESIIKPEQEFFTAPFEKNRMNDFYIVDRDAFFNPATRSRIVYFILSRVKYQVINNVSKFGINRLVNSGIYKAAFPLHDCKFRRQSEDPSCPNERYLLYREWAHPRSIYKKQPLDLIRKYYGEKIGIYFAWLGYYTQMLLLAAVVGVACFLYGYLNQDNCTWSKEVCHPDIGGKIIMCPQCDRLCPFWKLNITCESSKKLCIFDSFGTLVFAVFMGVWVTLFLEFWKRRQAELEYEWDTVELQQEEQARPEYEARCTHVVINEITQEEERIPFTAWGKCIRITLCASAVFFWILLIIASVIGIIVYRLSVFIVFSAKLPKNINGTDPIQKYLTPQTATSITASIISFIIIMILNTIYEKVAIMITNFELPRTQTDYENSLTMKMFLFQFVNYYSSCFYIAFFKGKFVGYPGDPVYWLGKYRNEECDPGGCLLELTTQLTIIMGGKAIWNNIQEVLLPWIMNLIGRFHRVSGSEKITPRWEQDYHLQPMGKLGLFYEYLEMIIQFGFVTLFVASFPLAPLLALVNNILEIRVDAWKLTTQFRRLVPEKAQDIGAWQPIMQGIAILAVVTNAMIIAFTSDMIPRLVYYWSFSVPPYGDHTSYTMEGYINNTLSIFKVADFKNKSKGNPYSDLGNHTTCRYRDFRYPPGHPQEYKHNIYYWHVIAAKLAFIIVMEHVIYSVKFFISYAIPDVSKRTKSKIQREKYLTQKLLHENHLKDMTKNMGVIAERMIEAVDNNLRPKSE
notes: Human TMEM16F variant 1 (anoctamin-6), cDNA clone NM_001025356.2 bought from Genescript; called 'purified whole TMEM16F protein' in the discussion; In one BLI experiment the same protein was incorporated into nanodiscs (MSP 2N2, Addgene #29520; POPC:POPG 3:1; TMEM16F:MSP:lipid 1:5:100) under detergent-free conditions; also called purified human TMEM16F protein; TMEM16F-nanodisc complex (when …)
stoichiometry N: 2
